Data as given in article PMC6787100, “Endophyte Bacillus subtilis evade plant defense by producing lantibiotic subtilomycin to mask self-produced flagellin” (Communications Biology, 2019).

target: T1, lantibiotic subtilomycin (Bacillus subtilis BSn5, lantibiotic; ApnB carries out the essential dehydration reaction of its biosynthesis; the modified residues are not listed); assay: MST; protein labelled with Cy5-NHS ester at fixed concentration, serial 2x dilutions of unlabelled subtilomycin (1 mM set as highest; 500 μM highest final in the legend); PBS pH 8.0; MST power 20%, LED power 60%; Monolith NT.115; constants called ambiguous, based on total subtilomycin concentration; conditions: both partners purified
T1 construct: subtilomycin, the lantibiotic made from the structural peptide encoded by apnA of Bacillus subtilis BSn5; exact molecular weight 3234.36 Da; Purified subtilomycin holds oligomers (trimers, tetramers, pentamers); source: B. subtilis BSn5 ∆hag mutant, 30% ammonium sulfate precipitate of culture supernatant, purified by prep-HPLC; also native in Apn5 (30% ammonium sulfate precipitate of BSn5 culture …)

Binder | Kd [µM]
EKLSSGLRINRAGDDAAGLAIS [flg22 (Bs), synthetic flg22 peptide of B. subtilis Hag] | 169 ± 10.4
∆Hag (flg22), Hag with the flg22 region deleted (domain or fragment) not shown | 66.4 ± 9.11
6× His-tagged Hag protein (natural protein, labelled with Cy5-NHS ester (in the MST assay only)) not shown | 18.8 ± 4.15
